In the DeepSol protein solubility set:

assay: soluble on expression in E. coli; label from the status in PepcDB or PDB records

Row | Sequence | soluble on expression in E. coli
1 | MGNESTPLRTITQALKLARPGTVIQLTPGNYSVETGETFPLMLKPGVSIQGNTSNKGQEVKIQGGGLFLSRSFGGQNVAIVGANQAGLTGVTITNPNPRGYGLWIESSNPVISENTFTGNTQDGISVTGNSATTITKNYFYRNGANGITIGGNSPAQVRENLFEETGFGINVAQNAVPMLVSNQIQNNRSGIIVQANARPILRNNLIQGSKEDGVVAIAQAMPDLGNATEAGGNEFRNNARHDINASAAKQAIAAVGNILDTKRITGKVALEHHHHHH | not soluble
2 | MGNFTFEEMNLMCIYNTGSRTGLIDSLREMRGELSPEETELRELTDSALTKLCAMTDEDFAQLELYPDFDQLEHHHHHH | soluble
3 | MGNKIAVIPGTFDPITNGHLDIIERAAKIFDVLYVSVLNNSSKKPLFTVEERMEMIKQVTAHLPNVHVESASGLTVDYAAKRGATAIVRGLRAVSDFEYEMQIASMNRTLNADIETFFVMTNTKYSFLSSSMVKEVAQYQGDIRELVPEVVNKAVKAKFNK | not soluble
4 | MGNLCSTSKNEAEPFSRPGRVLGSAANPPPNAAPRAPLPAKSKAPFKSPGRSLGEAAPEVPGAERADARTNAAIAAQVSDTVERSGAALVCGRWLTGECQKRAESAAKAQKGKLGSKLAAQKAQTQAKTLSEVSREQISARHMDESSEARRWN | not soluble
5 | MGNRLSKIATRTGDDGTTGLGDGSRVRKDDARIAAIGDVDELNSQIGVLLAEPLPDDVRAALSAIQHDLFDLGGELCIPGHAAITDAHLARLDGWLAHYNGQLPPLEEFILPGGARGAALAHVCRTVCRRAERSIVALGASEPLNAAPRRYVNRLSDLLFVLARVLNRAAGGADVLWDRTRAH | soluble
6 | MGNYKFRISEMLPNAWFHKLKDVTKHSKPKNKASSSSSNTCSKKKPSSDSLPQHSYFSNSLVANNPPHHNSPRNSLHTKKMSKRKTLYKPSLKPLTPPPLLVSASFNKSKINDQDSSYSLFPAIETSPESFVYSFYEEDDDDEFVEFSNFKINTKNKAFTKQKVKVIDSVEKACTASKPIKKPQKSHLSVKISRDEDDNEYKAEKKYQRQVSSGRKPSAGINLKRVNSPRIQLSGTRRSTSRRSESKQDVLESFAVMKRSVDPKKDFRESMIEMIEENNIRASKDLEDLLACYLTLNPKEYHDLIIHVFEQIWLQLTKTK | soluble
7 | MGQELNKIGIEVLRIVSIRDREEEIMEAVDNAMKRVNIVLVTGGLGPTKDDITKQTLCKYFHTELIFSEEVFENVKRVLAGKIPMNALNKSQAMVPKDCTVINNPVGSASVSWFEKDNKVLVSMPGVPQEMTAVMTESVLPKLREKFQTDVIMHRTFLVQHYPESILAEKLEPWETALPESIKLAYLPKLGIIRLRLTGRGQNKIEVESALNDEQAKLEAILGDDIFSEEDIPLEVIVGELLKKKNLTVSTAESCTGGSIAARLTSIAGSSEYFNGGIVAYSNEVKMNLLHVSPETLEVYGAVSEQTVIEMVKGAMKALKTDCAVATSGIAGPGGGTPEKPVGTVWIAAGYKNEIRTYRQETNRGRAMNIERAGNNALLILRDLLK | not soluble
8 | MGQFILEIYKIRIVSQTHLFSKLIFHSFLSFLFNDFSHLSASLPPLIDLSTKKKLLARASEGATSSSSPLPPASTATLSAFRPPARMIPPPVVLPQQYAPLPGFTPLLPAQAMMANFPPNALYQLGTPPFENGNNRIRFKDAAMVVLSRLSFNQRRLDNAHQ | not soluble
9 | MGQTLSEPVTKKESASCANENYLVGSSCMQGWRVDMEDAHTHLLSLPDDPKCAFFAVYDGHGGSKVSQYSGINLHKKVVAQKEFSEGNMKEAIEKGFLELDQQMRVDEETKDDVSGTTAVVVLIKEGDVYCGNAGDSRAVSSVVGEARPLSFDHKPSHETEARRIIAAGGWVEFNRVNGNLALSRALGDFAFKNCDTKPAEEQIVTAFPDVITDKLTPDHEFIVLACDGIWDVMTNQEVVDFVREKLAEKRDPQSICEELLTRCLAPDCQMGGLGCDNMTVVLVGLLHGQSPDTLFTKCARPAVFTGVNNEDGDQNQIQQDISRVINNFDGEQRVNAANQEEEEDDNEPAPANFQV | soluble
10 | MGRLDGKVIILTAAAQGIGQAAALAFAREGAKVIATDINESKLQELEKYPGIQTRVLDVTKKKQIDQFANEVERLDVLFNVAGFVHHGTVLDCEEKDWDFSMNLNVRSMYLMIKAFLPKMLAQKSGNIINMSSVASSVKGVVNRCVYSTTKAAVIGLTKSVAADFIQQGIRCNCVCPGTVDTPSLQERIQARGNPEEARNDFLKRQKTGRFATAEEIAMLCVYLASDESAYVTGNPVIIDGGWSLG | soluble
11 | MGRPRYLAYTRQIAMKSWRKAVVGTQATVGDAIAAIESGSIQIALVLDDQNRLLGVVTDGDVRRGLLRGIPLTGLATDIMNRVPVSAPATLSRDDRLHLMRQKSIKQLPLVDEGGHLVVVETLDELLEPRHYANPVLIMAGGLGERLGALTRDVPKPMLNVGGRPLLETIVRNVVQQGFRNIYISVNYKAETIKDYFADGAAFGANIQYVHETERLGTAGALGLFPAPPDLPMIVTNGDILTTINYGALLDFHNGTPAEATMAVREHKVHVPYGVVSTSDGFLQAIREKPTESWFVSAGIYVIGSSVFGHVAPGVSIDMPTVLERVIAGKGRVAVYPIREYWLDIGRLEDFEQAHAEFHEVFPLEHHHHHH | soluble
12 | MGRVAEKVIIIGNNFGNDKSAVTVLFTDNMEKENKAAVVGVDNTTIYCMAPRQAEGFNKITVKVNDQTVVADETFKYSVSENVSTIAGDFVQADGAGKDGSLAEATFGQMFGVACIDEQSGIVGQAWNNNSVRYISIDEDAVITIQSGPVVGKVAVSNDKTLAYGATINGANTVYVYKKSQAWVPSRLSDISSGTDVWAVALNGDNQWLYYVTANGRLGRIEVDNPTHNEILFEHNDFSGGPFAYIAYSAFEDCFYVTTDKNKILKVWVKEDGTHAYEQINQNNTGTTDGFLADEAKFQYLRGLTIDEDGNIFVCQGDNSHVIRKIAYDENMEKRYVTTVLGTSTVHGTDDGSPDIALFNGPQDISYDGNGGYWIAMRYEPALRKYSIELEHHHHHH | soluble
13 | MGRWWRYKWITFHPSLTQHWLWYAYNTKTGGVLAYTFGPRNDETCRELLALLTPFCIGMVTSDDWGSYAREVPKEKHLTGKIFTQRIARNNRTLRTRIKRLARKTICFSRSVEIHEKVIGSFIEKHMFYLEHHHHHH | soluble
14 | MGSDKIHHHHHHAAAPAFSALGDTASSQARHIATVFPGRMTGTPPEMLSADYLRQQFALMGYQSDVRSFNTRYIYTDSNQRKNWHNATGSTVIAAHEGKVRQQIIIMAHLDTYAPQSDKDVENNLGGLTLQGIDDNAMGLGVLLELAEHLKNVPTRYGIRFIATSGEEEGRLGAQNLLQRMSEAEKKNTLLVINLDNLVVGDKLYFNSGRSTPASVRKLTRDRALAIARSKGIAAYTNPGLNPAYPKGTSCCNDASVFDNAGIPVLSVEATNWSLGKKDGYQQRSKSASFPQGTSWHDVQLDNQQYIDHALPGRIEHRGREVVKVMLPLVKELAKVEKKS | not soluble
15 | MGSDKIHHHHHHAACADNADLNEPAGSTTPPAQVLNATVKNLPGAAIIYYDLPDDQNLKYVRASYKVDNMVRTVNASFYTDSLVVEGFPTKGEYDIELYSVSYGEVVSSPLVVKVNPDTPPYQKVRGTLVSAETFGGIRVNFDNPEKAKLGLGVIKKQAEGIWTQVYMHYTEAKGGDFYVRGLDAVTTDFGIFVRDRWGHLSDTLYVTETPLYEEQCDKSLFRKMALPTDSYECHSWNEVTKGNDMTRLWDGITDADPCFQTKTTTVMPQWFTFDMGENYKLSRFVMVSRYYPGKYGNTFKAGHPKHFEIWGSINPNPDGSFDDSWVLLSEYESVKPSGGGVNDALTAEDQEAAKNGENFIIPDNAPAVRYIRFRTNNTWGNTRYMHLHELTFFGAKHN | not soluble
16 | MGSDKIHHHHHHAAEKTVVNISKVDGMPWFNRMGEGVVQAGKEFNLNASQVGPSSTDAPQQVKIIEDLIARKVDAITIVPNDANVLEPVFKKARDAGIVVLTNESPGQPSANWDVEIIDNEKFAAEYVEHMAKRMGGKGGYVIYVGSLTVPQHNLWADLLVKYQKEHYPDMHEVTRRMPVAESVDDSRRTTLDLMKTYPDLKAVVSFGSNGPIGAGRAVKEKRAKNKVAVYGMMIPSQAASLIKSGDITEGITYDPATAGYALAAVASTLLNGKTIEPGFELKELGKAEVDSDKHIIRFHKVLLVNKDNIDSLY | not soluble
